Measured values published in PMC4683621.
Several values for one entry are separate records, joined by “and”; a condition that tells them apart may be missing. Equal entries are not always repeated.

Target: wild-type PaCLPP (Podospora anserina (endogenous in P. anserina mitochondria))
Assay: native gel or EMSA; BN-PAGE of mitochondrial protein extracts from P. anserina strains, western blot with a PaCLPP- or HsCLPP-specific antibody

Substance: wild-type PaCLPP (enzyme)
- stoichiometry N: 7 and 14
